Laboratory results reported in publication PMC10076392 (2023).

B1: FtsW-FtsI complex, His-tagged (complex)
chain 1: MRLSLPRLKMPRLPGFSILVWISTALKGWVMGSREKDTDSLIMYDRTLLWLTFGLAAIGFIMVTSASMPIGQRLTNDPFFFAKRDGVYLILAFILAIITLRLPMEFWQRYSATMLLGSIILLMIVLVVGSSVKGASRWIDLGLLRIQPAELTKLSLFCYIANYLVRKGDEVRNNLRGFLKPMGVILVLAVLLLAQPDLGTVVVLFVTTLAMLFLAGAKLWQFIAIIGMGISAVVLLILAEPYRIRRVTAFWNPWEDPFGSGYQLTQSLMAFGRGELWGQGLGNSVQKLEYLPEAHTDFIFAIIGEELGYVGVVLALLMVFFVAFRAMSIGRKALEIDHRFSGFLACSIGIWFSFQALVNVGAAAGMLPTKGLTLPLISYGGSSLLIMSTAIMMLLRIDYETRLEKAQAFVRGSR
chain 2: MKAAAKTQKPKRQEEHANFISWRFALLCGCILLALAFLLGRVAWLQVISPDMLVKEGDMRSLRVQQVSTSRGMITDRSGRPLAVSVPVKAIWADPKEVHDAGGISVGDRWKALANALNIPLDQLSARINANPKGRFIYLARQVNPDMADYIKKLKLPGIHLREESRRYYPSGEVTAHLIGFTNVDSQGIEGVEKSFDKWLTGQPGERIVRKDRYGRVIEDISSTDSQAAHNLALSIDERLQALVYRELNNAVAFNKAESGSAVLVDVNTGEVLAMANSPSYNPNNLSGTPKEAMRNRTITDVFEPGSTVKPMVVMTALQRGVVRENSVLNTIPYRINGHEIKDVARYSELTLTGVLQKSSNVGVSKLALAMPSSALVDTYSRFGLGKATNLGLVGERSGLYPQKQRWSDIERATFSFGYGLMVTPLQLARVYATIGSYGIYRPLSITKVDPPVPGERVFPESIVRTVVHMMESVALPGGGGVKAAIKGYRIAIKTGTAKKVGPDGRYINKYIAYTAGVAPASQPRFALVVVINDPQAGKYYGGAVSAPVFGAIMGGVLRTMNIEPDALTTGDKNEFV
B2: PBP1b (aa58-804) (enzyme)
chain: KPRGKRGWLWLLLKLAIVFAVLIAIYGVYLDQKIRSRIDGKVWQLPAAVYGRMVNLEPDMTISKNEMVKLLEATQYRQVSKMTRPGEFTVQANSIEMIRRPFDFPDSKEGQVRARLTFDGDHLATIVNMENNRQFGFFRLDPRLITMISSPNGEQRLFVPRSGFPDLLVDTLLATEDRHFYEHDGISLYSIGRAVLANLTAGRTVQGASTLTQQLVKNLFLSSERSYWRKANEAYMALIMDARYSKDRILELYMNEVYLGQSGDNEIRGFPLASLYYFGRPVEELSLDQQALLVGMVKGASIYNPWRNPKLALERRNLVLRLLQQQQIIDQELYDMLSARPLGVQPRGGVISPQPAFMQLVRQELQAKLGDKVKDLSGVKIFTTFDSVAQDAAEKAAVEGIPALKKQRKLSDLETAIVVVDRFSGEVRAMVGGSEPQFAGYNRAMQARRSIGSLAKPATYLTALSQPKIYRLNTWIADAPIALRQPNGQVWSPQNDDRRYSESGRVMLVDALTRSMNVPTVNLGMALGLPAVTETWIKLGVPKDQLHPVPAMLLGALNLTPIEVAQAFQTIASGGNRAPLSALRSVIAEDGKVLYQSFPQAERAVPAQAAYLTLWTMQQVVQRGTGRQLGAKYPNLHLAGKTGTTNNNVDTWFAGIDGSTVTITWVGRDNNQPTKLYGASGAMSIYQRYLANQTPTPLNLVPPEDIADMGVDYDGNFVCSGGMRILPVWTSDPQSLCQQSEMQQQPS

Tests used:
Experiment in all cases: BLI
[1] = molecular target: FtsB-FtsL-FtsQ complex, analyte of the BLI assay (E. coli strain K12, UniProt P0A6S5 1-103; P0AEN4 1-121; P06136 1-276, S3N | R4K | V5L)
[2] = molecular target: B2
[3] = molecular target: FtsB-FtsL-FtsQ complex, His-tagged (E. coli strain K12, UniProt P0A6S5 1-103; P0AEN4 1-121; P06136 1-276, S3N | R4K | V5L)

| Binder | Kd [1] [nM] | Kd [2] [nM] | Kd [3] [nM] |
| --- | --- | --- | --- |
| B1 | 180 | 530 | – |
| B2 | – | – | 930 |
